T1: TBK1 (Homo sapiens, UniProt Q9UHD2)
T1 sequence (Q9UHD2 1-729): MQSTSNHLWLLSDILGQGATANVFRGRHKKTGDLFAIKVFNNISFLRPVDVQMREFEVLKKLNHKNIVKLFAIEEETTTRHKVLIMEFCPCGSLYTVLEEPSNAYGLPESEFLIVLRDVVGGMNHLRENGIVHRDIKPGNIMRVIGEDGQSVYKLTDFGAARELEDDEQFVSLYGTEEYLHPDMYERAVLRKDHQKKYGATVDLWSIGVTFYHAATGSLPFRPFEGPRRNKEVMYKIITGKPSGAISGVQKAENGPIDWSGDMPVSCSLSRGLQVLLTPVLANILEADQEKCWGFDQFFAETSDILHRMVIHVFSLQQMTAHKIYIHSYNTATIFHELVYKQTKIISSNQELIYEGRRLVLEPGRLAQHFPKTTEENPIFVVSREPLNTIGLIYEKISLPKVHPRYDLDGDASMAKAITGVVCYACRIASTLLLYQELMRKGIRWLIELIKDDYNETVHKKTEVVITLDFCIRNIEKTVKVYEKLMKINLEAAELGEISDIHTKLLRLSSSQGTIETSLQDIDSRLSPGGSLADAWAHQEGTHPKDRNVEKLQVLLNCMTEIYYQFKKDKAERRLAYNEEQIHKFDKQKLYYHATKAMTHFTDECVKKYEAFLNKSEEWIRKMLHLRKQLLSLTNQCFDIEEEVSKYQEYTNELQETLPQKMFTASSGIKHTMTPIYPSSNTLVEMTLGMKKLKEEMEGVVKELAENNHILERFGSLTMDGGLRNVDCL

B1: MPT63: secretory immunodominant antigen of MTB (protein)
chain: AYPITGKLGSELTMTDTVGQVVLGWKVSDLKSSTAVIPGYPVAGQVWEATATVNAIRGSVTPAVSQFNARTADGINYRVLWQAAGPDTISGATIPQGEQSTGKIYFDVTGPSPTIVAMNNGMEDLLIWEP
B2: MPT64: secretory immunodominant antigen of MTB, located in the RD2 region (protein)
chain: APKTYCEELKGTDTGQACQIQMSDPAYNINISLPSYYPDQKSLENYIAQTRDKFLSAATSSTPREAPYELNITSATYQSAIPPRGTQAVVLKVYQNAGGTHPTTTYKAFDWDQAYRKPITYDTLWQADTDPLPVVFPIVQGELSKQTGQQVSIAPNAGLDPVNYQNFAVTNDGVIFFFNPGELLPEAAGPTQVLVPRSAIDSMLA

Tests used:
TBK1 = target: T1, TBK1; assay type: binding
p47phox = assay type: binding

Row | Molecule | domain of TBK1 required for binding (TBK1) | domain of p47phox required for binding (p47phox)
1 | B1 | the kinase domain in TBK1 was essential to bind MPT63 | the PX domain in p47phox was important for the interaction with MPT63
2 | B2 | The kinase domain (1–301) in TBK1 and HK2 domain in HK2 were found to be essential for their interaction with MPT64 | 

Source: publication PMC8152475 (Biomedicines, 2021)
